Data: publication PMC2397435 (2008)

B1: Gal4 DBD-HIV-1 p6 (wild type) [HIV-1 (pNL4-3)] / Gal4 AD-ALIX (868 amino acid-long) [not stated] (parent complex)
chain 1: LQSRPEPTAPPEESFRFGEETTTPSQKQEPIDKELYPLTSLRSLFGSDPSSQ
chain 2: MATFISVQLKKTSEVDLAKPLVKFIQQTYPSGGEEQAQYCRAAEELSKLRRAAVGRPLDKHEGALETLLRYYDQICSIEPKFPFSENQICLTFTWKDAFDKGSLFGGSVKLALASLGYEKSCVLFNCAALASQIAAEQNLDNDEGLKIAAKHYQFASGAFLHIKETVLSALSREPTVDISPDTVGTLSLIMLAQAQEVFFLKATRDKMKDAIIAKLANQAADYFGDAFKQCQYKDTLPKEVFPVLAAKHCIMQANAEYHQSILAKQQKKFGEEIARLQHAAELIKTVASRYDEYVNVKDFSDKINRALAAAKKDNDFIYHDRVPDLKDLDPIGKATLVKSTPVNVPISQKFTDLFEKMVPVSVQQSLAAYNQRKADLVNRSIAQMREATTLANGVLASLNLPAAIEDVSGDTVPQSILTKSRSVIEQGGIQTVDQLIKELPELLQRNREILDESLRLLDEEEATDNDLRAKFKERWQRTPSNELYKPLRAEGTNFRTVLDKAVQADGQVKECYQSHRDTIVLLCKPEPELNAAIPSANPAKTMQGSEVVNVLKSLLSNLDEVKKEREGLENDLKSVNFDMTSKFLTALAQDGVINEEALSVTELDRVYGGLTTKVQESLKKQEGLLKNIQVSHQEFSKMKQSNNEANLREEVLKNLATAYDNFVELVANLKEGTKFYNELTEILVRFQNKCSDIVFARKTERDELLKDLQQSIAREPSAPSIPTPAYQSSPAGGHAPTPPTPAPRTMPPTKPQPPARPPPPVLPANRAPSATAPSPVGAGTAAPAPSQTPGSAPPPQAQGPPYPTYPGYPGYCQMPMPMGYNPYAYGQYNMPYPPVYHQSPGQAPYPGPQQPSYPFPQPPQQSYYPQQ

Variants of: B1
Test: yeast two-hybrid, liquid β-galactosidase assay; yeast AH109, 30°C, SD/-Leu/-Trp selection medium; triplicate; parent: 1; read off a plot

**Q.** Which ratio to parent does the source give for chain 1 T39A here?
**A.** Its ratio to parent is roughly 1.1.

**Q.** How did the ratio to parent turn out when chain 1 E34A was run?
**A.** Its ratio to parent is roughly 0.35.

**Q.** How did the ratio to parent turn out when chain 1 I31A was run?
**A.** Its ratio to parent is roughly 0.95.

**Q.** How did the ratio to parent turn out when chain 1 G46A was run?
**A.** The ratio to parent was roughly 0.95.

**Q.** How did the ratio to parent turn out when chain 1 S40A was run?
**A.** The ratio to parent was roughly 1.

**Q.** How did the ratio to parent turn out when chain 1 F45A was run?
**A.** The ratio to parent was roughly 1.

**Q.** Which ratio to parent does the source give for chain 1 D32A here?
**A.** Its ratio to parent is roughly 0.86.

**Q.** For chain 1 L35A, which ratio to parent is on record?
**A.** The ratio to parent was roughly 0.2.

**Q.** How did the ratio to parent turn out when chain 1 K33A was run?
**A.** Its ratio to parent is roughly 1.

**Q.** chain 1 P37A was tested. Which ratio to parent did it give?
**A.** Its ratio to parent is roughly 0.3.

**Q.** How did the ratio to parent turn out when chain 1 S43A was run?
**A.** Its ratio to parent is roughly 0.8.

**Q.** With chain 1 L41A as the variant, how does the ratio to parent read?
**A.** The ratio to parent was roughly 0.15.

**Q.** Which ratio to parent does the source give for chain 1 L44A here?
**A.** The ratio to parent was roughly 0.6.

**Q.** How did the ratio to parent turn out when chain 1 R42A was run?
**A.** The ratio to parent was roughly 0.25.
